# From article PMC9482650, “Quantitative fragmentomics allow affinity mapping of interactomes” (Nature Communications, 2022)
# Numbering of substitutions follows the chain as printed.
# T1: RHPN1, Q8TCX5
# T1 sequence (Q8TCX5 508-602, limits assumed, looked up): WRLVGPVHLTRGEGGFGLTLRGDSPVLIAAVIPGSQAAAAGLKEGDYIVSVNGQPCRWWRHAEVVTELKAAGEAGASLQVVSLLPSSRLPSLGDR
# T2: NHERF3_3, Q5T2W1
# T2 sequence (Q5T2W1 238-333, limits assumed, looked up): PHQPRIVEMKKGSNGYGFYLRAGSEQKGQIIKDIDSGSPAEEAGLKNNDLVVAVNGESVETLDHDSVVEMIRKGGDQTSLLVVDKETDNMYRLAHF
# T3: LIN7B, Q9HAP6
# T3 sequence (Q9HAP6 88-185, limits assumed, looked up): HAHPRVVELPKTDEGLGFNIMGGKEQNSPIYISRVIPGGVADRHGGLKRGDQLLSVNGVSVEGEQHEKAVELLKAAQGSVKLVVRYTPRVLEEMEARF
# T4: SNTA1, Q13424
# T4 sequence (Q13424 82-180, limits assumed, looked up): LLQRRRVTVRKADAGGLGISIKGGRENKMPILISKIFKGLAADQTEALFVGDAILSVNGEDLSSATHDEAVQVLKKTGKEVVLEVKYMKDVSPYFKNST
# T5: APBA1_2, Q02410
# T5 sequence (Q02410 742-832, limits assumed, looked up): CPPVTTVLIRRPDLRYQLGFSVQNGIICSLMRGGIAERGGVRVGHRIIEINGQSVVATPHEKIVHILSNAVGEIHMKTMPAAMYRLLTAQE
# T6: DLG3_3, Q92796
# T6 sequence (Q92796 374-475, limits assumed, looked up): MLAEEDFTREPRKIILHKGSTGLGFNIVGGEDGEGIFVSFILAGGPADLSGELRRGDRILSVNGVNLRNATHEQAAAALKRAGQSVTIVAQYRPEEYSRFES
# T7: HTRA3, P83110
# T7 sequence (P83110 354-453, limits assumed, looked up): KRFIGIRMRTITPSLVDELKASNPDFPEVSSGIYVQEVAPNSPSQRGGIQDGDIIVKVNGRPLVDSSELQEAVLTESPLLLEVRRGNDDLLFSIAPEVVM
# T8: LIN7C, Q9NUP9
# T8 sequence (Q9NUP9 88-185, limits assumed, looked up): T3 sequence (Q9HAP6 88-185, limits assumed, looked up) with A2S, D13E, V35I, V40I, Q65H, S79K, R89K, A96S
# B1: PLCB2, Q00722 (peptide)
# chain: AKADAQESRL
# B2: ZNF599, Q96NL3 (peptide)
# chain: THHRKIHTRV
# B3: CD226, Q15762 (peptide)
# chain: TFSRRPKTRV
# B4: FZD1, Q9UP38 (peptide)
# chain: TNSKQGETTV
# Columns and labels:
# Assay in all cases: holdup assay
# Design in all cases: key: below the threshold = too weak to quantify, mostly under pKd 3.1 to 4
# Details in all cases: plain residues with an end cap or a label only (N-terminal biotin on a linker: ado-ado)
# DLG1_1, Q12959 = biological target: DLG1_1, Q12959
# RHPN1, Q8TCX5 = biological target: T1, RHPN1, Q8TCX5
# NHERF3_3, Q5T2W1 = biological target: T2, NHERF3_3, Q5T2W1
# Inadl_10, Q8NI35 = biological target: Inadl_10, Q8NI35
# Inadl_10, Q8NI35, sequence (Q8NI35 1673-1763): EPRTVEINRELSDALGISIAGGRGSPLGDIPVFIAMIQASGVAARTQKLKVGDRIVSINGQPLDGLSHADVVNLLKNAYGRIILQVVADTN
# GOPC, Q9HD26 = biological target: GOPC, Q9HD26
# LNX1_3, Q8TBB1 = biological target: LNX1_3, Q8TBB1
# LNX1_3, Q8TBB1, sequence (Q8TBB1 500-596): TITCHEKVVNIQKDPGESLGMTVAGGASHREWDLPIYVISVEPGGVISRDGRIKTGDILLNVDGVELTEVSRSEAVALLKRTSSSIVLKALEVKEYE
# ARHGEF12, Q9NZN5-2 = biological target: ARHGEF12, Q9NZN5-2
# ARHGEF12, Q9NZN5-2, sequence (Q9NZN5 other isoform, or with tags, fused parts or gaps): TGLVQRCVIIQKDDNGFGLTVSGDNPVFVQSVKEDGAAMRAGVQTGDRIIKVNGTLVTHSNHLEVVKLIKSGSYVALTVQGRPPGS
# FRMPD3, Q5JV73 = biological target: FRMPD3, Q5JV73
# FRMPD3, Q5JV73, sequence (Q5JV73 12-100): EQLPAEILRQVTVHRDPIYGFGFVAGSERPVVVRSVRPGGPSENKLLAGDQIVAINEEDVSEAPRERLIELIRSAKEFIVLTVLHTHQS
# LIN7B, Q9HAP6 = biological target: T3, LIN7B, Q9HAP6
# LNX1_2, Q8TBB1 = biological target: LNX1_2, Q8TBB1
# LNX1_2, Q8TBB1, sequence (Q8TBB1 371-470): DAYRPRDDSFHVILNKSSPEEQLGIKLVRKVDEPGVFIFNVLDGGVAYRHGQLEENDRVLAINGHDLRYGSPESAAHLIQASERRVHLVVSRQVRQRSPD
# MAST2, Q6P0Q8 = biological target: MAST2, Q6P0Q8
# MAST2, Q6P0Q8, sequence (Q6P0Q8 1099-1202): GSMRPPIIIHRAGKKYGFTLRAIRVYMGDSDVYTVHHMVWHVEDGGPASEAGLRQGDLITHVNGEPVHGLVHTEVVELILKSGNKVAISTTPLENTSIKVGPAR
# FRMPD2_2, Q68DX3 = biological target: FRMPD2_2, Q68DX3
# FRMPD2_2, Q68DX3, sequence (Q68DX3 944-1038): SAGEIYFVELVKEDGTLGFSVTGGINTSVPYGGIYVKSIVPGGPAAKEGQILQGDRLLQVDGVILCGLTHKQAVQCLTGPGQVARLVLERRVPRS
# GORASP1, Q9BQQ3 = biological target: GORASP1, Q9BQQ3
# GORASP1, Q9BQQ3, sequence (Q9BQQ3 1-208): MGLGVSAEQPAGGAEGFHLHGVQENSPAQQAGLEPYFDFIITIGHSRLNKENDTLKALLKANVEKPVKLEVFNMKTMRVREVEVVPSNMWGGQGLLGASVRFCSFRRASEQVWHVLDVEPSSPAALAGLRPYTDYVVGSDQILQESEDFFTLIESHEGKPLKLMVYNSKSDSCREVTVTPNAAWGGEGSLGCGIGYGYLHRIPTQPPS
# Inadl_4, Q8NI35 = biological target: Inadl_4, Q8NI35
# Inadl_4, Q8NI35, sequence (Q8NI35 547-651): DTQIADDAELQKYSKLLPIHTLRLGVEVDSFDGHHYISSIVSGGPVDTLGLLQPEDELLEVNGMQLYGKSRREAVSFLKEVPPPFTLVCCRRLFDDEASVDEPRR
# MAGI1_2, Q96QZ7 = biological target: MAGI1_2, Q96QZ7
# MAGI1_2, Q96QZ7, sequence (Q96QZ7 456-580): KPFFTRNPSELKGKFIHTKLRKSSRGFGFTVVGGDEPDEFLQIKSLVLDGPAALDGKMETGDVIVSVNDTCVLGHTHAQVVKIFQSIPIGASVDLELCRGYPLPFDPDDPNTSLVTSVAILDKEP
# SNTA1, Q13424 = biological target: T4, SNTA1, Q13424
# DLG4_3, P78352 = biological target: DLG4_3, P78352
# DLG4_3, P78352, sequence (P78352 306-403): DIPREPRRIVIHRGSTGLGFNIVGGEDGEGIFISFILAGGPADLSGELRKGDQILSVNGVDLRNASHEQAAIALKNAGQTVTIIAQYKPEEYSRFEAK
# PARD3_3, Q8TEW0 = biological target: PARD3_3, Q8TEW0
# PARD3_3, Q8TEW0, sequence (Q8TEW0 582-685): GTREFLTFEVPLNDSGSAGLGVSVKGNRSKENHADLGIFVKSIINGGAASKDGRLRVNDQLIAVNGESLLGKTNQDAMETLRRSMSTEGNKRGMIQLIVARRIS
# APBA1_2, Q02410 = biological target: T5, APBA1_2, Q02410
# DLG3_3, Q92796 = biological target: T6, DLG3_3, Q92796
# GRIP2_3, Q9C0E4 = biological target: GRIP2_3, Q9C0E4
# GRIP2_3, Q9C0E4, sequence (Q9C0E4 238-339): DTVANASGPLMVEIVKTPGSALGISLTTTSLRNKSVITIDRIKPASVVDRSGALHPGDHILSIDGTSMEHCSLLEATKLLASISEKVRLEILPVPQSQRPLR
# MAGI2_3, Q86UL8 = biological target: MAGI2_3, Q86UL8
# MAGI2_3, Q86UL8, sequence (Q86UL8 600-682): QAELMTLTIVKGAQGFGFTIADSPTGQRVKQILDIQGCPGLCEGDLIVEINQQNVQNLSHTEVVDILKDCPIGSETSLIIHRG
# DLG2_2, Q15700 = biological target: DLG2_2, Q15700
# DLG2_2, Q15700, sequence (Q15700 189-283): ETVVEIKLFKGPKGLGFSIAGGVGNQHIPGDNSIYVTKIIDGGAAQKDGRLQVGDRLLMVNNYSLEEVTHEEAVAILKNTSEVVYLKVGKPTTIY
# MAGI3_2, Q5TCQ9 = biological target: MAGI3_2, Q5TCQ9
# MAGI3_2, Q5TCQ9, sequence (Q5TCQ9 398-503): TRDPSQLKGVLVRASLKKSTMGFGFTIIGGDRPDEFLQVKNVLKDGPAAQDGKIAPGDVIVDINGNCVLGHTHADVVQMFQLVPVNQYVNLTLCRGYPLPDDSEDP
# Inadl_8, Q8NI35 = biological target: Inadl_8, Q8NI35
# Inadl_8, Q8NI35, sequence (Q8NI35 1425-1530): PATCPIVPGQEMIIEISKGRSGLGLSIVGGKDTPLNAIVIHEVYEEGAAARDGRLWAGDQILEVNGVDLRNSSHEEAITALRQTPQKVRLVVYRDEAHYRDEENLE
# HTRA3, P83110 = biological target: T7, HTRA3, P83110
# LIN7C, Q9NUP9 = biological target: T8, LIN7C, Q9NUP9
# FRMPD2_1, Q68DX3 = biological target: FRMPD2_1, Q68DX3
# FRMPD2_1, Q68DX3, sequence (Q68DX3 770-861): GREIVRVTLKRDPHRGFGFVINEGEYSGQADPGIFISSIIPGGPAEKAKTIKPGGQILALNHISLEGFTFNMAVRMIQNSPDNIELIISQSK
# NHERF4_4, Q86UT5 = biological target: NHERF4_4, Q86UT5
# NHERF4_4, Q86UT5, sequence (Q86UT5 464-550): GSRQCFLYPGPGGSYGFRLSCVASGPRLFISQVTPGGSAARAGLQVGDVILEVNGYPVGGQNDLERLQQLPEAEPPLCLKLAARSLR
# Inadl_6, Q8NI35 = biological target: Inadl_6, Q8NI35
# Inadl_6, Q8NI35, sequence (Q8NI35 1058-1167): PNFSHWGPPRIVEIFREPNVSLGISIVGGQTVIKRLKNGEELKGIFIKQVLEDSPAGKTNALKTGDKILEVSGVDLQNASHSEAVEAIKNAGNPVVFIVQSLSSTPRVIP
# Inadl_1, Q8NI35 = biological target: Inadl_1, Q8NI35
# Inadl_1, Q8NI35, sequence (Q8NI35 113-229): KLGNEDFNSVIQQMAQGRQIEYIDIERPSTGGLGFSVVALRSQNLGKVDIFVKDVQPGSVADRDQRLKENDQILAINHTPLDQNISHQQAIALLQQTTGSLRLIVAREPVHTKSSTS
Binder,"pKd (DLG1_1, Q12959)","pKd (RHPN1, Q8TCX5)","pKd (NHERF3_3, Q5T2W1)","pKd (Inadl_10, Q8NI35)","pKd (GOPC, Q9HD26)","pKd (LNX1_3, Q8TBB1)","pKd (ARHGEF12, Q9NZN5-2)","pKd (FRMPD3, Q5JV73)","pKd (LIN7B, Q9HAP6)","pKd (LNX1_2, Q8TBB1)","pKd (MAST2, Q6P0Q8)","pKd (FRMPD2_2, Q68DX3)","pKd (GORASP1, Q9BQQ3)","pKd (Inadl_4, Q8NI35)","pKd (MAGI1_2, Q96QZ7)","pKd (SNTA1, Q13424)","pKd (DLG4_3, P78352)","pKd (PARD3_3, Q8TEW0)","pKd (APBA1_2, Q02410)","pKd (DLG3_3, Q92796)",other results
B1,below the threshold,4.53,3.85,below the threshold,4.1,below the threshold,3.93,below the threshold,below the threshold,below the threshold,5.82,below the threshold,below the threshold,below the threshold,below the threshold,4.2,below the threshold,3.48,below the threshold,below the threshold,"pKd (GRIP2_3, Q9C0E4): below the threshold; pKd (MAGI2_3, Q86UL8): 3.51; pKd (DLG2_2, Q15700): below the threshold; pKd (MAGI3_2, Q5TCQ9): below the threshold; pKd (Inadl_8, Q8NI35): below the threshold; pKd (HTRA3, P83110): below the threshold; pKd (LIN7C, Q9NUP9): 4.28; pKd (FRMPD2_1, Q68DX3): below the threshold; pKd (NHERF4_4, Q86UT5): below the threshold; pKd (Inadl_6, Q8NI35): 3.48; pKd (Inadl_1, Q8NI35): below the threshold"
B2,5.07,4,below the threshold,below the threshold,4.67,below the threshold,4.3,below the threshold,below the threshold,3.5,5.03,3.52,3.87,3.57,4.96,4.3,4.38,below the threshold,3.62,4.43,"pKd (GRIP2_3, Q9C0E4): below the threshold; pKd (MAGI2_3, Q86UL8): 3.82; pKd (DLG2_2, Q15700): 5.38; pKd (MAGI3_2, Q5TCQ9): 5.32; pKd (Inadl_8, Q8NI35): 4.38; pKd (HTRA3, P83110): below the threshold; pKd (LIN7C, Q9NUP9): below the threshold; pKd (FRMPD2_1, Q68DX3): 3.89; pKd (NHERF4_4, Q86UT5): below the threshold; pKd (Inadl_6, Q8NI35): below the threshold; pKd (Inadl_1, Q8NI35): below the threshold"
B3,below the threshold,below the threshold,3.63,below the threshold,4.56,3.5,3.93,below the threshold,below the threshold,below the threshold,4.1,below the threshold,3.75,below the threshold,4.75,3.79,3.84,below the threshold,3.48,3.81,"pKd (GRIP2_3, Q9C0E4): below the threshold; pKd (MAGI2_3, Q86UL8): below the threshold; pKd (DLG2_2, Q15700): below the threshold; pKd (MAGI3_2, Q5TCQ9): 5.24; pKd (Inadl_8, Q8NI35): 4.6; pKd (HTRA3, P83110): below the threshold; pKd (LIN7C, Q9NUP9): below the threshold; pKd (FRMPD2_1, Q68DX3): 3.73; pKd (NHERF4_4, Q86UT5): below the threshold; pKd (Inadl_6, Q8NI35): below the threshold; pKd (Inadl_1, Q8NI35): below the threshold"
B4,4.61,4.14,below the threshold,below the threshold,3.67,below the threshold,below the threshold,below the threshold,below the threshold,3.68,4.88,below the threshold,below the threshold,below the threshold,3.82,4.51,3.76,3.58,3.74,4.13,"pKd (GRIP2_3, Q9C0E4): below the threshold; pKd (MAGI2_3, Q86UL8): 3.83; pKd (DLG2_2, Q15700): 4.82; pKd (MAGI3_2, Q5TCQ9): 4.94; pKd (Inadl_8, Q8NI35): below the threshold; pKd (HTRA3, P83110): below the threshold; pKd (LIN7C, Q9NUP9): 4.45; pKd (FRMPD2_1, Q68DX3): 3.79; pKd (NHERF4_4, Q86UT5): 3.95; pKd (Inadl_6, Q8NI35): below the threshold; pKd (Inadl_1, Q8NI35): below the threshold"
